From paper PMC10958042

B1: ATGL (PNPLA2, patatin-like phospholipase domain-containing protein 2), human, full length / CGI-58 (ABHD5, 1-acylglycerol-3-phosphate O-acyltransferase ABHD5), human (parent)
chain 1: MFPREKTWNISFAGCGFLGVYYVGVASCLREHAPFLVANATHIYGASAGALTATALVTGVCLGEAGAKFIEVSKEARKRFLGPLHPSFNLVKIIRSFLLKVLPADSHEHASGRLGISLTRVSDGENVIISHFNSKDELIQANVCSGFIPVYCGLIPPSLQGVRYVDGGISDNLPLYELKNTITVSPFSGESDICPQDSSTNIHELRVTNTSIQFNLRNLYRLSKALFPPEPLVLREMCKQGYRDGLRFLQRNGLLNRPNPLLALPPARPHGPEDKDQAVESAQAEDYSQLPGEDHILEHLPARLNEALLEACVEPTDLLTTLSNMLPVRLATAMMVPYTLPLESALSFTIRLLEWLPDVPEDIRWMKEQTGSICQYLVMRAKRKLGRHLPSRLPEQVELRRVQSLPSVPLSCAAYREALPGWMRNNLSLGDALAKWEECQRQLLLGLFCTNVAFPPEALRMRAPADPAPAPADPASPQHQLAGPAPLLSTPAPEARPVIGALGL
chain 2: MAAEEEEVDSADTGERSGWLTGWLPTWCPTSISHLKEAEEKMLKCVPCTYKKEPVRISNGNKIWTLKFSHNISNKTPLVLLHGFGGGLGLWALNFGDLCTNRPVYAFDLLGFGRSSRPRFDSDAEEVENQFVESIEEWRCALGLDKMILLGHNLGGFLAAAYSLKYPSRVNHLILVEPWGFPERPDLADQDRPIPVWIRALGAALTPFNPLAGLRIAGPFGLSLVQRLRPDFKRKYSSMFEDDTVTEYIYHCNVQTPSGETAFKNMTIPYGWAKRPMLQRIGKMHPDIPVSVIFGARSCIDGNSGTSIQSLRPHSYVKTIAILGAGHYVYADQPEEFNQKVKEICDTVD
B2: ATGL (PNPLA2, patatin-like phospholipase domain-containing protein 2), human, full length / CIDEC (FSP27), human (parent)
chain 1: B1 chain 1
chain 2: MEYAMKSLSLLYPKSLSRHVSVRTSVVTQQLLSEPSPKAPRARPCRVSTADRSVRKGIMAYSLEDLLLKVRDTLMLADKPFFLVLEEDGTTVETEEYFQALAGDTVFMVLQKGQKWQPPSEQGTRHPLSLSHKPAKKIDVARVTFDLYKLNPQDFIGCLNVKATFYDTYSLSYDLHCCGAKRIMKEAFRWALFSMQATGHVLLGTSCYLQQLLDATEEGQPPKGKASSLIPTCLKILQ

Variants of: B1
Experiment: LUMIER: Protein A-ATGL variant and firefly luciferase-partner co-expressed in HEK293T, lysates immunoprecipitated on IgG-coated plates, co-precipitated partner measured as luciferase luminescence
Conditions: with CGI-58 (ABHD5, 1-acylglycerol-3-phosphate O-acyltransferase ABHD5), transient co-transfection, IgG-coated LUMITRAC plates, 2 h at 4 °C, three PBS washes, Bright-Glo luciferase reagent, triplicates per assay, two …, parent: 0.32, not graded, scale: log2 fold change of co-immunoprecipitated luminescence relative to wild-type ATGL within each experiment

| Variant | screen value |
| --- | --- |
| chain 1 G16K | -0.139 |
| chain 1 A434L | 0.0792 |
| chain 1 G189E | -1.39 |
| chain 1 A453E | 0.381 |

More lines, now with the values ahead:

| screen value | Variant |
| --- | --- |
| -0.0835 | chain 1 S158E |
| -1.23 | chain 1 P258L |

Same assay, conditions: with CGI-58 (ABHD5, 1-acylglycerol-3-phosphate O-acyltransferase ABHD5), transient co-transfection, IgG-coated LUMITRAC plates, 2 h at 4 °C, three PBS washes, Bright-Glo luciferase reagent, triplicates per assay, two …, parent: 0.45, not graded, scale: log2 fold change of co-immunoprecipitated luminescence relative to wild-type ATGL within each experiment

| Variant | screen value |
| --- | --- |
| chain 1 G16K | 0.515 |
| chain 1 A434L | 0.226 |
| chain 1 G189E | -1.13 |
| chain 1 A453E | 0.474 |

More lines, now with the values ahead:

| screen value | Variant |
| --- | --- |
| -0.000176 | chain 1 S158E |
| -1.16 | chain 1 P258L |

Variants of: B2
Experiment: as above
Conditions: with CIDEC (FSP27), transient co-transfection, IgG-coated LUMITRAC plates, 2 h at 4 °C, three PBS washes, Bright-Glo luciferase reagent, triplicates per assay, two …, parent: 0.17, not graded, scale: log2 fold change of co-immunoprecipitated luminescence relative to wild-type ATGL within each experiment

| Variant | screen value |
| --- | --- |
| chain 1 H109E | -0.00157 |
| chain 1 K275A | -0.673 |
| chain 1 E314A | -0.691 |
| chain 1 F35E | 0.312 |
| chain 1 F35A | 0.00149 |
| chain 1 A453E | 0.56 |
| chain 1 A434L | -0.034 |
| chain 1 E125L | -0.231 |
| chain 1 I70A | -0.118 |
| chain 1 I70K | -0.434 |
| chain 1 F348E | -0.409 |
| chain 1 G16K | 0.534 |
| chain 1 G66L | 0.197 |
| chain 1 G66A | -0.0355 |
| chain 1 G59L | 0.339 |
| chain 1 L102K | -0.128 |
| chain 1 A104E | -0.0649 |
| chain 1 L159A | -0.648 |
| chain 1 L178A | -0.204 |
| chain 1 G189E | -0.952 |
| chain 1 G153K | -0.57 |
| chain 1 G153A | -0.268 |
| chain 1 E368A | -0.223 |
| chain 1 K92L | -0.0227 |
| chain 1 L62K | -0.0341 |
| chain 1 L62A | -0.111 |

Now from value to variant:

| screen value | Variant |
| --- | --- |
| 0.201 | chain 1 R329E |
| -0.723 | chain 1 P156K |
| 0.652 | chain 1 R163K |
| 0.105 | chain 1 T41A |
| -0.353 | chain 1 R351L |
| -0.166 | chain 1 V127L |
| -0.529 | chain 1 N180L |
| 0.302 | chain 1 V328A |
| -0.89 | chain 1 P258L |
| -0.411 | chain 1 Y415A |
| 0.129 | chain 1 N39E |
| -0.0915 | chain 1 R95K |
| -0.169 | chain 1 R95L |
| -0.161 | chain 1 Q140K |
| 0.722 | chain 1 Q140A |
| 0.0352 | chain 1 Q396A |
| -0.241 | chain 1 P103K |
| -0.478 | chain 1 S87E |
| -0.0562 | chain 1 S87A |
| -0.309 | chain 1 S158E |
| -0.128 | chain 1 S158A |
| -0.0703 | chain 1 S106K |
| -0.713 | chain 1 L261E |
| 0.081 | chain 1 P86K |
| -0.719 | chain 1 R113L |
| -0.11 | chain 1 R113K |

Same assay, conditions: with CIDEC (FSP27), transient co-transfection, IgG-coated LUMITRAC plates, 2 h at 4 °C, three PBS washes, Bright-Glo luciferase reagent, triplicates per assay, two …, parent: 0.24, not graded, scale: log2 fold change of co-immunoprecipitated luminescence relative to wild-type ATGL within each experiment

| Variant | screen value |
| --- | --- |
| chain 1 H109E | -0.00996 |
| chain 1 K275A | -0.64 |
| chain 1 E314A | -0.29 |
| chain 1 F35E | 0.00116 |
| chain 1 F35A | -0.0902 |
| chain 1 A453E | 0.847 |
| chain 1 A434L | 0.729 |
| chain 1 E125L | -0.238 |
| chain 1 I70A | -0.628 |
| chain 1 I70K | -0.623 |
| chain 1 F348E | -0.389 |
| chain 1 G16K | 0.954 |
| chain 1 G66L | -0.656 |
| chain 1 G66A | -0.0837 |
| chain 1 G59L | -0.00561 |
| chain 1 L102K | -0.319 |
| chain 1 A104E | -0.317 |
| chain 1 L159A | 0.00161 |
| chain 1 L178A | -0.645 |
| chain 1 G189E | -0.896 |
| chain 1 G153K | -0.174 |
| chain 1 G153A | 0.00164 |
| chain 1 E368A | -0.54 |
| chain 1 K92L | 0.785 |
| chain 1 L62K | 0.845 |
| chain 1 L62A | -0.17 |

Next, values leading:

| screen value | Variant |
| --- | --- |
| -0.13 | chain 1 R329E |
| -0.374 | chain 1 P156K |
| 0.0551 | chain 1 R163K |
| -0.176 | chain 1 T41A |
| -0.407 | chain 1 R351L |
| -0.0792 | chain 1 V127L |
| -0.574 | chain 1 N180L |
| -0.193 | chain 1 V328A |
| -0.788 | chain 1 P258L |
| -0.266 | chain 1 Y415A |
| -0.0276 | chain 1 N39E |
| -0.656 | chain 1 R95K |
| 0.507 | chain 1 R95L |
| 0.485 | chain 1 Q140K |
| 0.0209 | chain 1 Q140A |
| -0.182 | chain 1 Q396A |
| -0.421 | chain 1 P103K |
| -0.728 | chain 1 S87E |
| -0.798 | chain 1 S87A |
| -0.238 | chain 1 S158E |
| 0.0569 | chain 1 S158A |
| -0.113 | chain 1 S106K |
| -0.796 | chain 1 L261E |
| -0.642 | chain 1 P86K |
| 0.537 | chain 1 R113L |
| 0.829 | chain 1 R113K |
